Laboratory results: the supplement of paper PMC9112550, “Optimization of the antimicrobial peptide Bac7 by deep mutational scanning” (BMC Biology, 2022)

Tested on: Escherichia coli TOP10
Test: shrunken log2 fold change of peptide-encoding DNA abundance (4.5 h post-induction vs induction); higher = less antimicrobial activity (less host growth inhibition)
Settings: time post-induction: 4.5 h; library: site-saturation at positions 5, 18, 19, 20
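Also: peptides expressed intracellularly from a pBAD plasmid library in pooled LB shake-flask culture, induced with 0.3% L-arabinose, DNA abundance read by NGS, three biological replicates, DESeq2 with apeglm shrinkage.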

Sequence	shrunken log2 fold change
RRIRHRPPRLPRPRPRPWLAPRP	-0.26
RRIRVRPPRLPRPRPRPYTCPRP	-0.164
RRIRARPPRLPRPRPRPQMIPRP	0.181
RRIRMRPPRLPRPRPRPPTFPRP	0.122
RRIRTRPPRLPRPRPRPWWDPRP	0.132
RRIRLRPPRLPRPRPRPMNMPRP	-0.0334
RRIRWRPPRLPRPRPRPDEIPRP	0.0148
RRIRSRPPRLPRPRPRPSFGPRP	0.176
RRIRVRPPRLPRPRPRPPEDPRP	0.425
RRIRIRPPRLPRPRPRPAMTPRP	-0.366
RRIRLRPPRLPRPRPRPSEDPRP	-0.256
RRIRIRPPRLPRPRPRPRKQPRP	-0.00244
RRIRHRPPRLPRPRPRPAPMPRP	0.164
RRIRYRPPRLPRPRPRPKFVPRP	-0.416
RRIRERPPRLPRPRPRPDRCPRP	0.0731
RRIRLRPPRLPRPRPRPYGTPRP	-0.68
RRIRFRPPRLPRPRPRPFLPPRP	-0.208
RRIRGRPPRLPRPRPRPRTPPRP	1.18
RRIRDRPPRLPRPRPRPTAYPRP	-0.22
RRIRDRPPRLPRPRPRPRCVPRP	0.117
RRIRFRPPRLPRPRPRPIHRPRP	-0.0271
RRIRLRPPRLPRPRPRPMMNPRP	-0.18
RRIRWRPPRLPRPRPRPVHLPRP	-0.00868

Sequence	shrunken log2 fold change
RRIRTRPPRLPRPRPRPNANPRP	-0.0879
RRIRKRPPRLPRPRPRPYHNPRP	-0.227
RRIRTRPPRLPRPRPRPDSKPRP	0.0427
RRIRHRPPRLPRPRPRPPVIPRP	-0.251
RRIRIRPPRLPRPRPRPRYMPRP	-0.114
RRIRRRPPRLPRPRPRPWWGPRP	0.288
RRIRVRPPRLPRPRPRPSVWPRP	0.102
RRIRWRPPRLPRPRPRPKVNPRP	0.175
RRIRFRPPRLPRPRPRPYKWPRP	-0.298
RRIRERPPRLPRPRPRPRMGPRP	-0.173
RRIRERPPRLPRPRPRPMFDPRP	-0.121
RRIRFRPPRLPRPRPRPRAWPRP	0.409
RRIRFRPPRLPRPRPRPMLEPRP	0.147
RRIRQRPPRLPRPRPRPQVYPRP	-0.0731
RRIRKRPPRLPRPRPRPPWNPRP	0.136
RRIRKRPPRLPRPRPRPIEAPRP	0.0321
RRIRNRPPRLPRPRPRPVYKPRP	-0.453
RRIRNRPPRLPRPRPRPLHEPRP	0.0748
RRIRNRPPRLPRPRPRPNNWPRP	-0.0773
RRIRNRPPRLPRPRPRPMMGPRP	0.0355
RRIRRRPPRLPRPRPRPDGTPRP	0.0222
RRIRRRPPRLPRPRPRPFGCPRP	0.222
RRIRGRPPRLPRPRPRPVKWPRP	0.47

Sequence	shrunken log2 fold change
RRIRSRPPRLPRPRPRPRNTPRP	-0.411
RRIRSRPPRLPRPRPRPYMPPRP	-1.04
RRIRPRPPRLPRPRPRPSDVPRP	-0.249
RRIRHRPPRLPRPRPRPVWDPRP	-0.0821
RRIRPRPPRLPRPRPRPQSHPRP	-0.291
RRIRVRPPRLPRPRPRPEKSPRP	0.0304
RRIRSRPPRLPRPRPRPWCNPRP	-0.116
RRIRSRPPRLPRPRPRPMYEPRP	0.0571
RRIRYRPPRLPRPRPRPSVFPRP	-0.219
RRIRTRPPRLPRPRPRPHPGPRP	0.106
RRIRERPPRLPRPRPRPCADPRP	0.0245
RRIRSRPPRLPRPRPRPGNKPRP	-0.194
RRIRMRPPRLPRPRPRPAVPPRP	0.328
RRIRIRPPRLPRPRPRPLISPRP	-0.127
RRIRDRPPRLPRPRPRPALYPRP	0.468
RRIRCRPPRLPRPRPRPNHKPRP	-0.862
RRIRNRPPRLPRPRPRPAKPPRP	-0.00229
RRIRLRPPRLPRPRPRPPYAPRP	0.296
RRIRYRPPRLPRPRPRPNHDPRP	-0.433
RRIRSRPPRLPRPRPRPEAYPRP	-0.141
RRIRKRPPRLPRPRPRPWETPRP	0.696
RRIRRRPPRLPRPRPRPEQLPRP	0.203
RRIRFRPPRLPRPRPRPRQLPRP	-0.0618

Sequence	shrunken log2 fold change
RRIRQRPPRLPRPRPRPDWYPRP	-0.32
RRIRFRPPRLPRPRPRPFDIPRP	-0.182
RRIRNRPPRLPRPRPRPDSQPRP	-0.0699
RRIRARPPRLPRPRPRPWIYPRP	-0.647
RRIRERPPRLPRPRPRPGIAPRP	-0.183
RRIRPRPPRLPRPRPRPGSVPRP	0.0512
RRIRARPPRLPRPRPRPCIMPRP	-0.00141
RRIRVRPPRLPRPRPRPQDVPRP	-0.033
RRIRNRPPRLPRPRPRPFEAPRP	0.0104
RRIRGRPPRLPRPRPRPKLWPRP	0.896
RRIRTRPPRLPRPRPRPDFRPRP	0.0337
RRIRNRPPRLPRPRPRPCVDPRP	0.037
RRIRERPPRLPRPRPRPQHTPRP	-0.32
RRIRIRPPRLPRPRPRPKFVPRP	-0.0693
RRIRSRPPRLPRPRPRPLPSPRP	0.255
RRIRNRPPRLPRPRPRPHCCPRP	-0.215
RRIRQRPPRLPRPRPRPAHYPRP	-0.332
RRIRSRPPRLPRPRPRPWWHPRP	-0.166
RRIRNRPPRLPRPRPRPNNRPRP	0.113
RRIRWRPPRLPRPRPRPITVPRP	-0.0559
RRIRRRPPRLPRPRPRPPKYPRP	-0.14
RRIRRRPPRLPRPRPRPGAMPRP	0.337
